The RNAGym collection of RNA variant scans (doi:10.1101/gr.219683.116)

B1: mRNA-splicing (parent)
chain: AGUUGCUGCUGGGAGCUCCAGCACAGUGAAAUGGACAGAAGGGCAGAGCAA

Variants of: B1
Experiment: exon inclusion enrichment index; higher = more inclusion; WT1 exon 5 minigene, HEK293

Row | Variant | exon inclusion enrichment index
1 | G5C C6G U7C U10C G13C A14U | 1.88
2 | G5C C6G U7C U10C G13U | 0.534
3 | G5C C6G U7C U10C G13U A14C | 1.67
4 | G5C C6G U7C U10C G13U A14G | 1.28
5 | G5C C6G U7C U10C G13U A14U | 1.35
6 | G5C C6G U7C U10C G15A | 2.71
7 | G5C C6G U7C U10C G15A C16A | 3.14
8 | G5C C6G U7C U10C G15A C16G | 3.04
9 | G5C C6G U7C U10C G15A C16U | 3.21
10 | G5C C6G U7C U10C G15C | 3.44
11 | G5C C6G U7C U10C G15C C16A | 3.23
12 | G5C C6G U7C U10C G15C C16G | 3.66
13 | G5C C6G U7C U10C G15C C16U | 3.37
14 | G5C C6G U7C U10C G15U | 3.45
15 | G5C C6G U7C U10C G15U C16A | 3.58
16 | G5C C6G U7C U10C G15U C16G | 4.02
17 | G5C C6G U7C U10C G15U C16U | 3.3
18 | G5C C6G U7C U10C G21A | 2.93
19 | G5C C6G U7C U10C G21A C22A | 1.7
20 | G5C C6G U7C U10C G21A C22G | 3.81
21 | G5C C6G U7C U10C G21A C22U | 1.87
22 | G5C C6G U7C U10C G21C | 3.41
23 | G5C C6G U7C U10C G21C C22A | 3.02
24 | G5C C6G U7C U10C G21C C22G | 4.61

Row | Variant | exon inclusion enrichment index
25 | G5C C6G U7C U10C G21C C22U | 3.43
26 | G5C C6G U7C U10C G21U | 2.48
27 | G5C C6G U7C U10C G21U C22A | 1.73
28 | G5C C6G U7C U10C G21U C22G | 3.57
29 | G5C C6G U7C U10C G21U C22U | 1.36
30 | G5C C6G U7C U10C G26A | 4.41
31 | G5C C6G U7C U10C G26A U27A | 3.45
32 | G5C C6G U7C U10C G26A U27C | 4.94
33 | G5C C6G U7C U10C G26A U27G | 3.56
34 | G5C C6G U7C U10C G26C | 3.97
35 | G5C C6G U7C U10C G26C U27A | 3.33
36 | G5C C6G U7C U10C G26C U27C | 4.24
37 | G5C C6G U7C U10C G26C U27G | 4.43
38 | G5C C6G U7C U10C G26U | 3.19
39 | G5C C6G U7C U10C G26U U27A | 2.22
40 | G5C C6G U7C U10C G26U U27C | 4.3
41 | G5C C6G U7C U10C G26U U27G | 3.98
42 | G5C C6G U7C U10C G28A | 1.63
43 | G5C C6G U7C U10C G28A A29C | 2.29
44 | G5C C6G U7C U10C G28A A29G | 2.1
45 | G5C C6G U7C U10C G28A A29U | 1.28
46 | G5C C6G U7C U10C G28C | 2.68
47 | G5C C6G U7C U10C G28C A29C | 2.81
48 | G5C C6G U7C U10C G28C A29G | 4.75

Row | Variant | exon inclusion enrichment index
49 | G5C C6G U7C U10C G28C A29U | 2.35
50 | G5C C6G U7C U10C G28U | 1.05
51 | G5C C6G U7C U10C G28U A29C | 2.89
52 | G5C C6G U7C U10C G28U A29G | 3.24
53 | G5C C6G U7C U10C G28U A29U | 1.08
54 | G5C C6G U7C U10C G33A | 0.609
55 | G5C C6G U7C U10C G33A G34A | 0.795
56 | G5C C6G U7C U10C G33A G34C | 0.988
57 | G5C C6G U7C U10C G33A G34U | 0.979
58 | G5C C6G U7C U10C G33C | 3.55
59 | G5C C6G U7C U10C G33C G34A | 2.48
60 | G5C C6G U7C U10C G33C G34C | 2.29
61 | G5C C6G U7C U10C G33C G34U | 2.86
62 | G5C C6G U7C U10C G33U | 1.79
63 | G5C C6G U7C U10C G33U G34A | 0.696
64 | G5C C6G U7C U10C G33U G34C | 1.15
65 | G5C C6G U7C U10C G33U G34U | 0.875
66 | G5C C6G U7C U10C G34A | 2.69
67 | G5C C6G U7C U10C G34A A35C | 2.92
68 | G5C C6G U7C U10C G34A A35G | 2.26
69 | G5C C6G U7C U10C G34A A35U | 1.96
70 | G5C C6G U7C U10C G34C | 1.79
71 | G5C C6G U7C U10C G34C A35C | 0.321
72 | G5C C6G U7C U10C G34C A35G | 2.84

Row | Variant | exon inclusion enrichment index
73 | G5C C6G U7C U10C G34C A35U | 1.1
74 | G5C C6G U7C U10C G34U | 1.32
75 | G5C C6G U7C U10C G34U A35C | 1.66
76 | G5C C6G U7C U10C G34U A35G | 1.24
77 | G5C C6G U7C U10C G34U A35U | 1.2
78 | G5C C6G U7C U10C G38A | 2.05
79 | G5C C6G U7C U10C G38A A39C | 2.65
80 | G5C C6G U7C U10C G38A A39G | 2.72
81 | G5C C6G U7C U10C G38A A39U | 0.365
82 | G5C C6G U7C U10C G38C | 2.56
83 | G5C C6G U7C U10C G38C A39C | 2.86
84 | G5C C6G U7C U10C G38C A39G | 2.71
85 | G5C C6G U7C U10C G38C A39U | 0.532
86 | G5C C6G U7C U10C G38U | 1.34
87 | G5C C6G U7C U10C G38U A39C | 3.03
88 | G5C C6G U7C U10C G38U A39G | 2.02
89 | G5C C6G U7C U10C G38U A39U | 0.22
90 | G5C C6G U7C U10C G41A | 2.7
91 | G5C C6G U7C U10C G41A G42A | 2.54
92 | G5C C6G U7C U10C G41A G42C | 3.88
93 | G5C C6G U7C U10C G41A G42U | 2.89
94 | G5C C6G U7C U10C G41C | 4.53
95 | G5C C6G U7C U10C G41C G42A | 3
96 | G5C C6G U7C U10C G41C G42C | 4.35

Row | Variant | exon inclusion enrichment index
97 | G5C C6G U7C U10C G41C G42U | 4.21
98 | G5C C6G U7C U10C G41U | 3.2
99 | G5C C6G U7C U10C G41U G42A | 1.45
100 | G5C C6G U7C U10C G41U G42C | 3.95
101 | G5C C6G U7C U10C G41U G42U | 2.79
102 | G5C C6G U7C U10C G42A | 4.32
103 | G5C C6G U7C U10C G42A G43A | 4.65
104 | G5C C6G U7C U10C G42A G43C | 5.39
105 | G5C C6G U7C U10C G42A G43U | 5.36
106 | G5C C6G U7C U10C G42C | 4.75
107 | G5C C6G U7C U10C G42C G43A | 4
108 | G5C C6G U7C U10C G42C G43C | 3.63
109 | G5C C6G U7C U10C G42C G43U | 3.91
110 | G5C C6G U7C U10C G42U | 4.02
111 | G5C C6G U7C U10C G42U G43A | 4.08
112 | G5C C6G U7C U10C G42U G43C | 2.28
113 | G5C C6G U7C U10C G42U G43U | 4.33
114 | G5C C6G U7C U10C G43A | 5.08
115 | G5C C6G U7C U10C G43A C44A | 4.31
116 | G5C C6G U7C U10C G43A C44G | 4.94
117 | G5C C6G U7C U10C G43A C44U | 3.64
118 | G5C C6G U7C U10C G43C | 2.7
119 | G5C C6G U7C U10C G43C C44A | 3.83
120 | G5C C6G U7C U10C G43C C44G | 6.55

Row | Variant | exon inclusion enrichment index
121 | G5C C6G U7C U10C G43C C44U | 3.09
122 | G5C C6G U7C U10C G43U | 2.89
123 | G5C C6G U7C U10C G43U C44A | 0.0721
124 | G5C C6G U7C U10C G43U C44G | 0.713
125 | G5C C6G U7C U10C G43U C44U | 1.4
126 | G5C C6G U7C U10C G46A | 3.39
127 | G5C C6G U7C U10C G46A A47C | 3.6
128 | G5C C6G U7C U10C G46A A47G | 1.33
129 | G5C C6G U7C U10C G46A A47U | 3.68
130 | G5C C6G U7C U10C G46C | 2.78
131 | G5C C6G U7C U10C G46C A47C | 2.58
132 | G5C C6G U7C U10C G46C A47G | 3.52
133 | G5C C6G U7C U10C G46C A47U | 2.37
134 | G5C C6G U7C U10C G46U | 2.51
135 | G5C C6G U7C U10C G46U A47C | 3.73
136 | G5C C6G U7C U10C G46U A47G | 2.91
137 | G5C C6G U7C U10C G46U A47U | 3.93
138 | G5C C6G U7C U10C G48A | 4.29
139 | G5C C6G U7C U10C G48C | 3.91
140 | G5C C6G U7C U10C G48U | 4.46
141 | G5C C6G U7C U10C U17A | 3.8
142 | G5C C6G U7C U10C U17A C18A | 2.9
143 | G5C C6G U7C U10C U17A C18G | 4.2
144 | G5C C6G U7C U10C U17A C18U | 3.37

Row | Variant | exon inclusion enrichment index
145 | G5C C6G U7C U10C U17C | 3.43
146 | G5C C6G U7C U10C U17C C18A | 3.59
147 | G5C C6G U7C U10C U17C C18G | 4.56
148 | G5C C6G U7C U10C U17C C18U | 3.54
149 | G5C C6G U7C U10C U17G | 1.86
150 | G5C C6G U7C U10C U17G C18A | 3.39
151 | G5C C6G U7C U10C U17G C18G | 2.48
152 | G5C C6G U7C U10C U17G C18U | 3.11
153 | G5C C6G U7C U10C U27A | 3.66
154 | G5C C6G U7C U10C U27A G28A | 3.01
155 | G5C C6G U7C U10C U27A G28C | 3.86
156 | G5C C6G U7C U10C U27A G28U | 1.9
157 | G5C C6G U7C U10C U27C | 4.97
158 | G5C C6G U7C U10C U27C G28A | 3.28
159 | G5C C6G U7C U10C U27C G28C | 4.03
160 | G5C C6G U7C U10C U27C G28U | 2.8
161 | G5C C6G U7C U10C U27G | 2.02
162 | G5C C6G U7C U10C U27G G28A | 3.58
163 | G5C C6G U7C U10C U27G G28C | 2.55
164 | G5C C6G U7C U10C U27G G28U | 0.0303
165 | G5C C6G U7C U10C U32A | 3.12
166 | G5C C6G U7C U10C U32A G33A | 2
167 | G5C C6G U7C U10C U32A G33C | 3.67
